[ ]: non-standard residue; d: D form. Sta = CC(C)C[C@H](N)[C@@H](O)CC(=O)O
Experiments:
[1] = biological target: T1, recombinant full-length human β-secretase (1-501) expressed from pCEK clone 27 / pCFβA2 in 293T or Cos A2 … (human, UniProt P56817 46-501); assay: affinity chromatography on peptide-Sepharose, extracts of transfected 293T and COS A2 cells
T1 construct: From 293T cells the N-terminus was mainly residue 46, with minor forms at 22 and 63; From Cos A2 cells it was 46 and 58; also called p501 β-secretase; full length clone 27
Experimental: The cell pellet was resuspended by homogenizing for 30 seconds using a handheld homogenizer (0.5 ml/pellet of approximately […] in extraction buffer consisting of 20 mM TRIS buffer, pH 7.5, 2 mM EDTA, 0.2% Triton X-100, plus protease inhibitors: 5 µg/ml E-64, 10 µg/ml pepstatin, 1 mM PMSF), centrifuged as maximum speed in a microfuge (40 minutes at 4 degrees C.). Pellets were suspended in original volume of extraction buffer, then stirred at 1 hour at 4 degrees C. with rotation, and centrifuted again in a microfuge at maximum speed for 40 minutes. The resulting supernatant was saved as the "extract." The extract was then diluted with 20 mM sodium acetate, pH 5.0,2 mM EDTA and 0.2% Triton X-100 (SP buffer A), and 5M NaCl was added to a final concentration of 60 mM NaCl. The pH of the solution was then adjusted to pH 5.0 with glacial acetic acid diluted 1:10 in water. Aliquots were saved ("SP load"). The SP load was passed through a 1 ml SP HiTrap column which was pre-washed with 5 ml SP buffer A, 5 ml SP buffer B (SP buffer A with 1 M NaCl) and 10 ml SP buffer A. An additional 2 ml of 5% SP buffer B was passed through the column to displace any remaining sample from the column. The pH of the SP flow-through was adjusted to pH 4.5 with 10× diluted acetic acid. This flow-through was then applied to a P10-P4'staD→V-Sepharose Affinity column, as described below. […]

β-secretase 46-452 = biological target: T2, β-secretase 46-452 (human, UniProt P56817 46-452); assay: binding to peptide-Sepharose affinity matrix
T2 construct: C-terminally truncated form lacking the transmembrane region
Experimental: The same fractions run under non-reducing conditions (FIG. 6B) provide evidence for disulfide cross-linked oligomers. When the anion exchange pool fractions 18–21 (see FIG. 6B) were treated with dithiothreitol (DTT) and re-chromatographed on a Mini Q column, then subjected to SDS-PAGE under non-reducing conditions, a single band running at about 70 kilodaltons was observed.
All manipulations were carried out at room temperature. 12.5 ml of 80% slurry of NHS-Sepharose (i.e. 10 ml packed volume; Pharmnacia, Piscataway, N.J.) was poured into a Bio-Rad EconoColumn (BioRad, Richmond, Calif.) and washed with 165 ml of ice-cold 1.0 mM HCl. When the bed was fully drained, the bottom of the column was closed off, and 5.0 ml of 7.0 mg/ml P10-P4'sta(D→V) peptide (dissolved in 0.1 M HEPES, pH 8.0) was added. The column was capped and incubated with rotation for 24 hours. After incubation, the column was allowed to drain, then washed with 8 ml of 1.0 M ethanolamine, pH 8.2. An additional 10 ml of the ethanolamine solution was added, and the column was again capped and incubated overnight with rotation. […]

T1 sequence (P56817 46-501 limits assumed): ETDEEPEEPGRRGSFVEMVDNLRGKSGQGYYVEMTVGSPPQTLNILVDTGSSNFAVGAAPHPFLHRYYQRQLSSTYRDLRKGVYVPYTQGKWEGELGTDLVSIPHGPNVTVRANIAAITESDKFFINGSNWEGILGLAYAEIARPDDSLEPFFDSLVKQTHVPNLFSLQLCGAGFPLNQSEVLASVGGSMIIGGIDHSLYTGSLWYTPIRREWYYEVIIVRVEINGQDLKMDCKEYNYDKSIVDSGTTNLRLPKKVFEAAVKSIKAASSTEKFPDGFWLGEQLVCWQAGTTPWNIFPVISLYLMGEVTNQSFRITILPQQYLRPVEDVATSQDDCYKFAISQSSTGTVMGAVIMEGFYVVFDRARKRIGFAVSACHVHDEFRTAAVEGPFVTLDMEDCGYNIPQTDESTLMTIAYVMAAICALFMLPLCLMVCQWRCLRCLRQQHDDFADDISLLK
T2 sequence (P56817 46-452 limits assumed): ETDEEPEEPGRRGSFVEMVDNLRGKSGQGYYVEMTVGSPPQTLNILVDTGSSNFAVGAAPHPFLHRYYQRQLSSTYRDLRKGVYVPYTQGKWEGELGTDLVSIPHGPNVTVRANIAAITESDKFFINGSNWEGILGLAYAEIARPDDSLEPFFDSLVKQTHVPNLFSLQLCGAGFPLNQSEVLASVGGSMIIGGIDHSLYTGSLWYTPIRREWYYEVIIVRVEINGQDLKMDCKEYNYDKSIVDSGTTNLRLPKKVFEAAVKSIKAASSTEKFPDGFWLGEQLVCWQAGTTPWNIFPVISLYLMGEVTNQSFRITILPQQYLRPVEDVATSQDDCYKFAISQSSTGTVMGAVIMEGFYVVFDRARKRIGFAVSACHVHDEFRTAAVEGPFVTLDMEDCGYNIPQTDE

## H-KTEEISEVN[Sta]VAEF-OH (also called P10-P4′(statine)D→V) [P10-P4′staD→V (NH2-KTEEISEVN[sta]VAEF-CO2H)]
[1]
  binding result: binds
β-secretase 46-452
  binding result: binds

— US6627739
